The results in this text go back to PMC12615485, “New dengue virus inhibitors targeting NS3-NS5 interaction identified by in silico screening” (Frontiers in Microbiology, 2025).

The assay has as its target 6His-NS5 RdRp(270-900) of DENV-2 NGC strain (DENV-2 NGC strain). Kind of assay: ELISA. The following applies: both partners purified. Background: In an ELISA, binding on a coated surface is turned into a signal by an enzyme label.

Turning to EGEWKEGEEVQVLAL [NS3(86-100) peptide of DENV-2], the concentration for half-maximal inhibition (IC50) (as a rule, the concentration needed to halve the response being measured) was over 200 µM.
